The assay concerns the target biotinylated human DLL3 protein expressed as a human IgG1 fusion protein (human) (UniProt Q9NYJ7). Briefly: Octet BLI; biotinylated huDLL3-IgG1 fusion on streptavidin tips; single 50 nM; conditioned medium.

Consider 29 molecules from US20200095340A1.

biotinylated human DLL3 protein expressed as a human IgG1 fusion protein (human), sequence (Q9NYJ7 other isoform, or with tags, fused parts or gaps): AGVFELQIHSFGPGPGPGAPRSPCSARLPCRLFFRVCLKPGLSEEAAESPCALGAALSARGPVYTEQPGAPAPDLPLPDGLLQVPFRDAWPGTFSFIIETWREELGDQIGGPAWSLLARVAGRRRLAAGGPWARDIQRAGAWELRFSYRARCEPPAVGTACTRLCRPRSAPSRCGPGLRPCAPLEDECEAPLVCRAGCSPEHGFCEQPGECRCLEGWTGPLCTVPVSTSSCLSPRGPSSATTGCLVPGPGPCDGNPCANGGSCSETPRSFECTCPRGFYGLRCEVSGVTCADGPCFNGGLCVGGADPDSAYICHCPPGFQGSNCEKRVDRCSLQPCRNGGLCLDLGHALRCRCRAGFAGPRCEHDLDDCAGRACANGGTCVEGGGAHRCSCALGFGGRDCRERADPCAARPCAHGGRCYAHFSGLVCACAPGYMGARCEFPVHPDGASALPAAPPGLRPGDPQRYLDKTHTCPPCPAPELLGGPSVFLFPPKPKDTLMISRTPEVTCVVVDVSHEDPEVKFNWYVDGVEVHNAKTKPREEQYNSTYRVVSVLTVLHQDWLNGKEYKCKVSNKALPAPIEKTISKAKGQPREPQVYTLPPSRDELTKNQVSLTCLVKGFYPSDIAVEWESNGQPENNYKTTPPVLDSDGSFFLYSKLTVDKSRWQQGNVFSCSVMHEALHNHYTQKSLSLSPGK

B1: anti-DLL3 trispecific protein 2A05 (protein, part only; not given: CD3 fragment and albumin sdAb, part only)
chain, part: EVQLVESGGGLVQPGGSLTLSCVASGRTSSINAMGWYRRAPGKQRELVAGISSDGSKVYNDSVKGRFTISRDNAKNSVYLQMNSLRAEDTAVYYCYYFRTVSGTSMRYWGQGTLVTVSSGGGGSGGGSGGGGSGGGSHHHHHH
What is called Kd is the concentration at which binding is half-saturated. Higher therefore signals a looser complex. The molecule B1 came in with a dissociation constant (Kd) of 8.9 nM.

B2: anti-DLL3 trispecific protein 1E08 (protein, part only; not given: anti-CD3 fragment and anti-albumin sdAb, part only)
chain, part: EVQLVESGGGLVQPGGSLTLSCVASGKTSSINAMGWYRRAPGKQRELVAGISSDGSKVIADSVKGRFTISRDNAKNSVYLQMNSLRAEDTAVYYCYYFRTVLGSSMRYWGQGTLVTVSSGGGGSGGGSGGGGSGGGSHHHHHH
For B2, the Kd turned out to be 9.4 nM.

B3: anti-DLL3 trispecific protein 1D04 (protein, part only; not given: CD3 fragment and albumin sdAb, part only)
chain, part: EVQLVESGGGLVQPGGSLTLSCVASGSTSSKNAMGWYRRAPGKQRELVAGISSDGSKVYADSVKGRFTISRDNAKNSVYLQMNSLRAEDTAVYYCYYFRTVSGASMRYWGQGTLVTVSSGGGGSGGGSGGGGSGGGSHHHHHH
As for B3, the equilibrium dissociation constant (Kd) was found to be 9.7 nM.

B4: anti-DLL3 trispecific protein 2F01 (protein, part only; not given: anti-CD3 and anti-albumin domains, part only)
chain, part: EVQLVESGGGLVQPGGSLTLSCVASGSTSSINAMGWYRRAPGKQRELVAGISSDGSKVYSDSVKGRFTISRDNAKNSVYLQMNSLRAEDTAVYYCYYFRLVSGSSMRYWGQGTLVTVSSGGGGSGGGSGGGGSGGGSHHHHHH
For B4, the equilibrium dissociation constant (Kd) worked out at 9.2 nM.

B5: anti-DLL3 trispecific protein 2A06 (protein, part only; not given: CD3 binder and albumin binder, part only)
chain, part: EVQLVESGGGLVQPGGSLTLSCVASGSTSSRNAMGWYRRAPGKQRELVAGISSDGSKVTADSVKGRFTISRDNAKNSVYLQMNSLRAEDTAVYYCYYFRTRSGSSMRYWGQGTLVTVSSGGGGSGGGSGGGGSGGGSHHHHHH
In the case of B5, the dissociation constant (Kd) amounted to 8.9 nM.

B6: anti-DLL3 trispecific protein 1F06 (protein, part only; not given: anti-CD3 and anti-albumin domains, part only)
chain, part: EVQLVESGGGLVQPGGSLTLSCVASGTTSSINAMGWYRRAPGKQRELVAGISSDGSKVIADSVKGRFTISRDNAKNSVYLQMNSLRAEDTAVYYCYYFRTVLGSSMRYWGQGTLVTVSSGGGGSGGGSGGGGSGGGSHHHHHH
Turning to B6, the Kd turned out to be 8.9 nM.

B7: anti-DLL3 trispecific protein 2F02 (protein, part only; not given: anti-CD3 fragment and anti-albumin sdAb, part only)
chain, part: EVQLVESGGGLVQPGGSLTLSCVASGSTSSINAVGWYRRAPGKQRELVAGISSDGSKVYAGSVKGRFTISRDNAKNSVYLQMNSLRAEDTAVYYCYYFRTVSGSYMRYWGQGTLVTVSSGGGGSGGGSGGGGSGGGSHHHHHH
Molecule B7 displayed a dissociation constant (Kd) of 9.6 nM.

B8: anti-DLL3 trispecific protein 1F01 (protein, part only; not given: CD3 fragment and albumin sdAb, part only)
chain, part: EVQLVESGGGLVQPGGSLTLSCVASGSTSSINAMGWYRRAPGKQRELVAGISSDGSKVYGDSVKGRFTISRDNAKNSVYLQMNSLRAEDTAVYYCYYFRTVSRSSMRYWGQGTLVTVSSGGGGSGGGSGGGGSGGGSHHHHHH
B8 showed an equilibrium dissociation constant (Kd) of 9.4 nM.

B9: anti-DLL3 trispecific protein 1B07 (protein, part only; not given: anti-CD3 and anti-albumin domains, part only)
chain, part: EVQLVESGGGLVQPGGSLTLSCVASGSGSSINAMGWYRRAPGKQRELVAGISSDGSKVYSDSVKGRFTISRDNAKNSVYLQMNSLRAEDTAVYYCYYFRHVSGSSMRYWGQGTLVTVSSGGGGSGGGSGGGGSGGGSHHHHHH
Turning to B9, the Kd turned out to be 8.9 nM.

B10: anti-DLL3 trispecific protein 1D012 (protein, part only; not given: anti-CD3 fragment and anti-albumin domain, part only)
chain, part: EVQLVESGGGLVQPGGSLTLSCVASGSTSHINAMGWYRRAPGKQRELVAGISSDGSRVYADSVKGRFTISRDNAKNSVYLQMNSLRAEDTAVYYCYYFRTVSGGSMRYWGQGTLVTVSSGGGGSGGGSGGGGSGGGSHHHHHH
The molecule B10 displayed a Kd of 9.3 nM.

B11: anti-DLL3 trispecific protein 4G09 (protein, part only; not given: anti-CD3 fragment and anti-albumin domain, part only)
chain, part: EVQLVESGGGLVQPGGSLTLSCAASGSRVSFLSMAWYRQAPGKKRELVAGISYDGSTDYIDSVKGRFTISRDNAKNSVYLQMNSLRAEDTAVYYCYAYRWTTRRTYWGQGTLVTVSSGGGGSGGGSGGGGSGGGSHHHHHH
For the molecule B11, the dissociation constant Kd was determined as 8.8 nM.

B12: anti-DLL3 trispecific protein 3H03 (protein, part only; not given: anti-CD3 fragment and anti-albumin domain, part only)
chain, part: EVQLVESGGGLVQPGGSLTLSCAASGSSVRFLSMAWYRQAPGKKRELVAGISTDGSTDYIDSVKGRFTISRDNAKNSVYLQMNSLRAEDTAVYYCYALRWTTRYTYWGQGTLVTVSSGGGGSGGGSGGGGSGGGSHHHHHH
Consider B12, for which the Kd worked out at 9.9 nM.

B13: anti-DLL3 trispecific protein 3B011 (protein, part only; not given: anti-CD3 and anti-albumin domains, part only)
chain, part: EVQLVESGGGLVQPGGSLTLSCAASGSSVSFLSMAWYRQAPGKKRELVAGISADGSADYIDSVKGRFTISRDNAKNSVYLQMNSLRAEDTAVYYCYAYRWVTRYTYWGQGTLVTVSSGGGGSGGGSGGGGSGGGSHHHHHH
Molecule B13 gave an equilibrium dissociation constant (Kd) of 9 nM.

B14: anti-DLL3 trispecific protein 4E010 (protein, part only; not given: anti-CD3 and anti-albumin domains, part only)
chain, part: EVQLVESGGGLVQPGGSLTLSCAASGSSVKFLSMAWYRQAPGKKRELVAGISADGSTDYIDSVKGRFTISRDNAKNSVYLQMNSLRAEDTAVYYCYAYRWRTRYTYWGQGTLVTVSSGGGGSGGGSGGGGSGGGSHHHHHH
On to B14, for which the Kd is 9 nM.

B15: anti-DLL3 trispecific protein 4G010 (protein, part only; not given: anti-CD3 and anti-albumin domains, part only)
chain, part: EVQLVESGGGLVQPGGSLTLSCAASGHSVSFLSMAWYRQAPGKKRELVAGISADGSTDYIASVKGRFTISRDNAKNSVYLQMNSLRAEDTAVYYCYAYRWSTRYTYWGQGTLVTVSSGGGGSGGGSGGGGSGGGSHHHHHH
As for B15, the Kd was found to be 9.9 nM.

B16: anti-DLL3 trispecific protein 3G04 (protein, part only; not given: CD3 binder and albumin binder, part only)
chain, part: EVQLVESGGGLVQPGGSLTLSCVASGTSVSFLSMAWYRQAPGKKRELVAGISADGSTIYIDSVKGRFTISRDNAKNSVYLQMNSLRAEDTAVYYCYAYRWTTRRTYWGQGTLVTVSSGGGGSGGGSGGGGSGGGSHHHHHH
For B16, the Kd came to 8.8 nM.

B17: anti-DLL3 trispecific protein 4E09 (protein, part only; not given: anti-CD3 fragment and anti-albumin sdAb, part only)
chain, part: EVQLVESGGGLVQPGGSLTLSCAASGSSVSFLSSAWYRQAPGKKRELVAGISADGSTLYIDSVKGRFTISRDNAKNSVYLQMNSLRAEDTAVYYCYAYRWTTRSTYWGQGTLVTVSSGGGGSGGGSGGGGSGGGSHHHHHH
Turning to B17, the Kd is 9.1 nM.

B18: anti-DLL3 trispecific protein 4F04 (protein, part only; not given: anti-CD3 fragment and anti-albumin sdAb, part only)
chain, part: EVQLVESGGGLVQPGGSLTLSCAASRSSVSFLSMAWYRQAPGKKRELVAGISTDGSTDYIDSVKGRFTISRDNAKNSVYLQMNSLRAEDTAVYYCYAYRWLTRYTYWGQGTLVTVSSGGGGSGGGSGGGGSGGGSHHHHHH
Consider B18, for which the dissociation constant (Kd) amounted to 9.8 nM.

B19: anti-DLL3 trispecific protein 4A07 (protein, part only; not given: CD3 binder and albumin binder, part only)
chain, part: EVQLVESGGGLVQPGGSLTLSCAASGSKVSFLSMAWYRQAPGKKRELVAGISADGSTLYIDSVKGRFTISRDNAKNSVYLQMNSLRAEDTAVYYCYAYRWTTRYRYWGQGTLVTVSSGGGGSGGGSGGGGSGGGSHHHHHH
B19 showed a dissociation constant (Kd) of 9.8 nM.

B20: anti-DLL3 trispecific protein 4H08 (protein, part only; not given: anti-CD3 fragment and anti-albumin sdAb, part only)
chain, part: EVQLVESGGGLVQPGGSLTLSCAASGSSVKFLSMAWYRQAPGKKRELVAGISADGSTDYVDSVKGRFTISRDNAKNSVYLQMNSLRAEDTAVYYCYAYRWSTRYTYWGQGTLVTVSSGGGGSGGGSGGGGSGGGSHHHHHH
Molecule B20 returned an equilibrium dissociation constant (Kd) of 8.9 nM.

B21: anti-DLL3 trispecific protein 4F08 (protein, part only; not given: anti-CD3 and anti-albumin domains, part only)
chain, part: EVQLVESGGGLVQPGGSLTLSCAASGSKVSFLSMAWYRQAPGKKRELVAGISADGSTAYIDSVKGRFTISRDNAKNSVYLQMNSLRAEDTAVYYCYAYRWRTRYTYWGQGTLVTVSSGGGGSGGGSGGGGSGGGSHHHHHH
B21 returned an equilibrium dissociation constant (Kd) of 9 nM.

B22: anti-DLL3 trispecific protein 3C02 (protein, part only; not given: anti-CD3 and anti-albumin domains, part only)
chain, part: EVQLVESGGGLVQPGGSLTLSCAASGSSVRFLSMAWYRQAPGKKRELVAGISADGSTIYIDSVKGRFTISRDNAKNSVYLQMNSLRAEDTAVYYCYAYRWRTRYTYWGQGTLVTVSSGGGGSGGGSGGGGSGGGSHHHHHH
Consider B22, for which the Kd came to 9.1 nM.

B23: anti-DLL3 trispecific protein 3A04 (protein, part only; not given: CD3 binder and albumin binder, part only)
chain, part: EVQLVESGGGLVQPGGSLTLSCAASGSQVSFLSMAWYRQAPGKKRELVAGISRDGSTDYIDSVKGRFTISRDNAKNSVYLQMNSLRAEDTAVYYCYAYRWTTRYIYWGQGTLVTVSSGGGGSGGGSGGGGSGGGSHHHHHH
In the case of B23, the Kd is 9.2 nM.

B24: anti-DLL3 trispecific protein 3H01 (protein, part only; not given: CD3 binder and albumin binder, part only)
chain, part: EVQLVESGGGLVQPGGSLTLSCVASGSSVKFLSMAWYRQAPGKKRELVAGISGDGSTTYIDSVKGRFTISRDNAKNSVYLQMNSLRAEDTAVYYCYAYRWTTRRTYWGQGTLVTVSSGGGGSGGGSGGGGSGGGSHHHHHH
On to B24, for which the Kd was 9 nM.

B25: anti-DLL3 trispecific protein 4A05 (protein, part only; not given: anti-CD3 and anti-albumin domains, part only)
chain, part: EVQLVESGGGLVQPGGSLTLSCAASGSSVSFLSLAWYRQAPGKKRELVAGISADGSTDYIDSVKGRFTISRDNAKNSVYLQMNSLRAEDTAVYYCYAYRWKTRRTYWGQGTLVTVSSGGGGSGGGSGGGGSGGGSHHHHHH
For the molecule B25, the Kd was determined as 9.4 nM.

B26: anti-DLL3 trispecific protein 4G05 (protein, part only; not given: CD3 fragment and albumin sdAb, part only)
chain, part: EVQLVESGGGLVQPGGSLTLSCAASGSSVSILSMAWYRQAPGKKRELVAGISADGSTIYIDSVKGRFTISRDNAKNSVYLQMNSLRAEDTAVYYCYAYRWHTRYTYWGQGTLVTVSSGGGGSGGGSGGGGSGGGSHHHHHH
Turning to B26, the Kd was determined as 9.7 nM.

B27: anti-DLL3 trispecific protein 4A09 (protein, part only; not given: anti-CD3 and anti-albumin domains, part only)
chain, part: EVQLVESGGGLVQPGGSLTLSCAASGSSVKFLSMAWYRQAPGKKRELVAGISADGSTDYIGSVKGRFTISRDNAKNSVYLQMNSLRAEDTAVYYCYAYRWTTRVTYWGQGTLVTVSSGGGGSGGGSGGGGSGGGSHHHHHH
B27 showed an equilibrium dissociation constant (Kd) of 9 nM.

B28: anti-DLL3 trispecific protein 4A02 (protein, part only; not given: anti-CD3 fragment and anti-albumin domain, part only)
chain, part: EVQLVESGGGLVQPGGSLTLSCAASGSSVRFLSMAWYRQAPGKKRELVAGISNDGSTDYIDSVKGRFTISRDNAKNSVYLQMNSLRAEDTAVYYCYAYRWKTRYTYWGQGTLVTVSSGGGGSGGGSGGGGSGGGSHHHHHH
In turn, B28 registered a Kd of 9 nM.

B29: anti-DLL3 trispecific protein 4D010 (protein, part only; not given: anti-CD3 fragment and anti-albumin sdAb, part only)
chain, part: EVQLVESGGGLVQPGGSLTLSCAASGSSVSFLSMAWYRQAPGKKRELVAGISADGSTDYIHSVKGRFTISRDNAKNSVYLQMNSLRAEDTAVYYCYAYRWRTRYTYWGQGTLVTVSSGGGGSGGGSGGGGSGGGSHHHHHH
For B29, the Kd was found to be 9.9 nM.
